# Data: US20110251266, “APTAMER FOR NGF AND USE THEREOF” (Shionogi & Co., Ltd., published 2011)
# Target: T1, beta-NGF (nerve growth factor) (Homo sapiens, UniProt P01138 P01138:122-241)
# Experiment: SPR; NGF-TrkA and NGF-P75; no PC-12 inhibition
# Details: tags: R&D Systems human NGF; chain copies: 2
# Protocol: (§1) As directed in BIAcore Company's protocol, Protein A (21181, PIERCE) was immobilized on a CM5 sensor chip. About 1100 RU of human Trk A-Fc fused with the Fc portion of IgG (175-TK, R&D systems) was immobilized thereon. As the analyte, a mixture of NGF (0.1 μM) and each aptamer (0.33 μM) was injected after being allowed to stand for 30 minutes. […] When NGF binds stronger to a receptor than an aptamer, the aptamer may be removed and NGF may bind to the receptor. […] Using the binding amount of NGF and NGF receptor without an aptamer as 100, the binding amount of NGF and NGF receptor added with an aptamer was determined as a correction value. Here, the binding amount is the RU value at the peak top of the sensorgram of BIAcore (RU value immediately after completion of NGF injection). […] A similar experiment was performed for another receptor P75 (p75-Fc; R&D systems).
# T1 sequence (P01138 122-241, one chain of several): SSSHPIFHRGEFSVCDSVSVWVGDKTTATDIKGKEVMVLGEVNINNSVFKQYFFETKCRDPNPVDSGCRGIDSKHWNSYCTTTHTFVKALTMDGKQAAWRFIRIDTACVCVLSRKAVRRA
row,Binder,activity [% inhibition]
1,"GGGAGCUGCUUAAACAAGCAAGUGAAAAAAACCC (ssRNA, 2'-F pyrimidines) [SEQ31 aptamer]",≥ 60
2,"GGGCUGUGGAGCUGCUUAAACAAGCAAGUGAAAAAAACCACAGCCC (ssRNA, 2'-F pyrimidines) [SEQ26 aptamer]",≥ 60
3,"GGGAAGCCGUGGAGCUGCGGAUGAAAAAAACCC (ssRNA, 2'-F pyrimidines) [SEQ88 aptamer]",≥ 60
4,"GGGAAGCCUGUGGAGCUGCAGGAUGAAAAAAACCC (ssRNA, 2'-F pyrimidines) [SEQ36 aptamer]",≥ 60
5,"GUGGAGCUGUUAAACAACAAGUGAAAAAAACCAC (ssRNA, 2'-F pyrimidines) [SEQ34 aptamer]",≥ 60
6,"UGUGGAGCUGCUAAACAGCAAGUGAAAAAAACCACA (ssRNA, 2'-F pyrimidines) [SEQ33 aptamer]",≥ 60
7,"GGGAGCCUGUAAACAGCAGGUGAAAAAAACCC (ssRNA, 2'-F pyrimidines) [SEQ90 aptamer]",≥ 60
8,"GGGAAGCCUGUGGAGCUGCAGGAUGAAAAAAACCCAAAAUUAAAU (ssRNA, 2'-F pyrimidines) [SEQ27 aptamer]",≥ 60
9,"GGGAAGCCUGUAAACAGCAGGAUGAAAAAAACCC (ssRNA, 2'-F pyrimidines) [SEQ89 aptamer]",≥ 60
10,"GGAGCUGCCUACACUUUAGUAUGACAAACCUAGAGUGUAAAUGCUUC (ssRNA, 2'-F pyrimidines) [SEQ25 aptamer]",≥ 60

# Target: T1, beta-NGF (nerve growth factor)
# Experiment: SPR; blocks NGF-TrkA and NGF-P75; PC-12 neurite inhibition + (Table 2)
# Details: tags: R&D Systems; chain copies: 2
# Protocol: as §1
row,Binder,activity [% inhibition]
1,"SEQ12 aptamer (ssRNA, 2'-F all pyrimidines) RNA: GGGAAGCCUGUGGAGCUGCGAAACAGUGAAACAAACCACAGACUGAGAAAGCAGUAACAGCAUUGUCACCAACAACUGG",≥ 60
2,"SEQ8 aptamer (ssRNA, 2'-F all pyrimidines) RNA: GGGAAGCCUGUGGAGCUGCGGAUAAAAAUAGAGUUUGAUAAACACCUGUAUUAAAACCGCAUUGUCACCAACAACUGG",≥ 60
3,"SEQ3 aptamer (ssRNA, 2'-F all pyrimidines) RNA: GGGAAGCCUGUGGAGCUGCAGGAUGAAAAAAACCCAAAAUAAGUAGAAAUGACAGAAUGGCAUUGUCACCAACAACUGG",≥ 60
4,"GGGAUAAAAAUAGAGUUUGAUAAACACCUGUAUUAAAACCC (ssRNA, 2'-F all pyrimidines) [SEQ30 aptamer]",≥ 60
5,"SEQ1 aptamer (ssRNA, 2'-F all pyrimidines) RNA: GGGAAGCCUGUGGAGCUGCAGGAUGAAAAAAACCCAAAAACAAAGACAAUGAUUGAGUAGCAUUGUCACCAACAACUGG",≥ 60
6,"SEQ9 aptamer (ssRNA, 2'-F all pyrimidines) RNA: GGGAAGCCUGUGGAGCUGCUCCACAAGGAUGAAAAAAACCCAAAUAAUAUAUUUAAUCAGCAUUGUCACCAACAACUGG",≥ 60
7,"SEQ6 aptamer (ssRNA, 2'-F all pyrimidines) RNA: GGGAAGCCUGUGGAGCUGCAGGAUGAAAAAAACCCAAAAUUAAAUAAAAAAUAGACGGUGCAUUGUCACCAACAACUGG",≥ 60
8,"SEQ7 aptamer (ssRNA, 2'-F all pyrimidines) RNA: GGGAAGCCUGUGGAGCUGCAGGAUGAAAAAAACCCAAAAUUAGAUAAAAAAUAGACGGUGCAUUGUCACCAACAACUGG",≥ 60
9,"UGUGGAGCUGCUUAAACAAGCAAGUGAAAAAAACCACA (ssRNA, 2'-F all pyrimidines) [SEQ32 aptamer]",≥ 60
10,"SEQ4 aptamer (ssRNA, 2'-F all pyrimidines) RNA: GGGAAGCCUGUGGAGCUGCAGGAUGAAAAAAACCCAAAUAUGACAAAUAAAACGGCAACGCAUUGUCACCAACAACUGG",≥ 60
11,"SEQ5 aptamer (ssRNA, 2'-F all pyrimidines) RNA: GGGAAGCCUGUGGAGCUGCUUAAACAAGCAAGUGAAAAAAACCACAGCAAAUGUAAAAAGCAUUGUCACCAACAACUGG",≥ 60

# Target: T1, beta-NGF (nerve growth factor)
# Experiment: SPR; more than 30N; inhibits TrkA and P75 binding
# Details: tags: R&D Systems human NGF; chain copies: 2
# Protocol: as §1
row,Binder,binding result
1,"SEQ60 aptamer (ssRNA, 2'-F pyrimidines) RNA: GGGAGAACUUCGACCAGAGGAUUUGAAAAAAACCCGAAUAAAGAUAACAGUAUGUGCGCAUACAUGGAUCCUCA",binds

# Target: T1, beta-NGF (nerve growth factor)
# Experiment: cell_activity; PC-12 neurite outgrowth, 500 nM aptamer
# Details: tags: R&D Systems; chain copies: 2
# Protocol: The physiological activity of aptamer was evaluated by a neurite outgrowth suppressive experiment using PC-12 cells. PC-12 cell, which is a cell line derived from rat adrenal gland pheochromocytoma, is a model cell of the nervous system, elongates neurite by NGF stimulation, and differentiates like nerve cells. Whether or not an aptamer inhibits the neurite outgrowth was evaluated. PC-12 cells were seeded on a 96 well flat-bottom plate coated with collagen, and a mixed solution of NGF (final concentration 25 ng/ml, or 1.9 nM) prereacted for 1 hr at 37° C. and an aptamer (final concentration 500 nM) was added to start the cell culture. Thereafter, the same amount of the aptamer was added twice every 24 hr and the level of neurite outgrowth was observed and evaluated on day 3 with a microscope. For evaluation, scores 0-3 were used, where score 0 is no neurite outgrowth, score 1 is slight neurite outgrowth, score 2 is neurite outgrowth to the nearby cell, and score 3 is markedly reticulated neurite outgrowth. The system wherein PC-12 cells were cultivated for 3 days with the addition of NGF alone was taken as a negative control, and system capable wherein the cells for 3 days without addition of NGF was taken as a positive control. […] Setting the score of the negative control as inhibitory activity 0%, and the score of the positive control as inhibitory activity 100%, the inhibitory activity (%) of the aptamer was calculated. An inhibitory activity of not less than 50% is shown with +, and that of less than 50% is shown with −.
row,Binder,activity [% inhibition]
1,"GGGAUAAAAAUAGAGUUUGAUAAACACCUGUAUUAAAACCC (ssRNA, 2'-F all pyrimidines; 2'-OMe at a35,a36) [SEQ30(3)]",≥ 50
2,"GGGAUAAAAAUAGAGUUUGAUAAACACCUGUAUUAAAACCC (ssRNA, 2'-F all pyrimidines; 2'-OMe at a9,a10) [SEQ30(2)]",≥ 50
3,"GGGAUAAAAAUAGAGUUUGAUAAACACCUGUAUUAAAACCC (ssRNA, 2'-F all pyrimidines; 2'-OMe at a12,g13,a14,g15,g19,a20,a22,a23,a24,a26; idT at 5' and 3' ends) [SEQ30(1)]",≥ 50
4,"UGUGGAGCUGCUUAAACAAGCAAGUGAAAAAAACCACA (ssRNA, 2'-F all pyrimidines; 2'-OMe at a30,a31) [SEQ32(3)]",≥ 50
5,"UGUGGAGCUGCUUAAACAAGCAAGUGAAAAAAACCACA (ssRNA, 2'-F all pyrimidines; 2'-OMe at g10,a14,a15,a16,a18,a19,g20,a22,a23,g24; idT at 5' and 3' ends) [SEQ32(1)]",≥ 50
6,"UGUGGAGCUGCUUAAACAAGCAAGUGAAAAAAACCACA (ssRNA, 2'-F all pyrimidines; 2'-OMe at g2,a38) [SEQ32(2)]",≥ 50
7,"GGGAAGCCUGUGGAGCUGCAGGAUGAAAAAAACCCAAA (ssRNA, 2'-F all pyrimidines; 2'-OMe at a4,a5,g6,g10,g18,a20,g21,g22,a29,a30,a31,a32; idT at 5' and 3' ends) [SEQ35(2)]",≥ 50
8,"GGGAAGCCUGUGGAGCUGCAGGAUGAAAAAAACCCAAA (ssRNA, 2'-F all pyrimidines; 2'-OMe at a36,a37,a38) [SEQ35(3)]",≥ 50

# Target: T1, beta-NGF (nerve growth factor)
# Experiment: cell_activity; Neuroscreen-1 neurite outgrowth, 1.1 nM NGF
# Details: tags: R&D Systems human NGF; chain copies: 2
# Protocol: The neurite outgrowth inhibitory activity of aptamer was evaluated by using Neuroscreen-1 cell, which is a subclone of PC-12 cells. 2500 Cells per well were cultured for one day in an RPMI-1640 medium containing 2.5% horse serum and 1.25% fetal bovine serum in a 96 well flat-bottom plate coated with collagen type IV. A mixed solution of NGF (final concentration 15 ng/ml or 1.1 nM) prereacted in a serum-free RPMI-1640 medium at room temperature or 37° C. for 30 min to 1 hr and an aptamer (final concentration 500-3 nM) was added. Two or three days later, the cytoplasm and nuclei were stained using Cellomics Neurite Outgrowth Kits (manufactured by Thermo Scientific), and neurite length per cell was measured by Cellomics ArrayScan VTI (manufactured by Thermo Scientific). With the neurite length per cell obtained by culturing the cell for 2 days with the addition of NGF alone as inhibitory activity 0%, and that of the cell obtained by NGF free culture as inhibitory activity 100%, the inhibitory activity of the aptamer was calculated from the neurite length per cell obtained by culturing with the addition of NGF and the aptamer in mixture. […] When the inhibitory activity was 0% or below, ‘0%’ is indicated. […] The 50% inhibitory concentration was determined from the concentrations at two, above and below points sandwiching the 50% inhibitory activity.
row,Binder,IC50 [nM]
1,"SEQ68 aptamer (ssRNA, 2'-F pyrimidines) RNA: GGGAGAACUUCGACCAGAAGUCGAGAGCGAAAGAAACUCCCAAAACACAGUAUGUGCGCAUACAUGGAUCCUCA",1.9

# Target: T1, beta-NGF (nerve growth factor)
# Experiment: cell_activity; 100 nM aptamer; parent 92.7%
# Details: tags: R&D Systems human NGF; chain copies: 2
# Protocol: The neurite outgrowth inhibitory activity of aptamer was evaluated by using Neuroscreen-1 cell, which is a subclone of PC-12 cells. 2500 Cells per well were cultured for one day in an RPMI-1640 medium containing 2.5% horse serum and 1.25% fetal bovine serum in a 96 well flat-bottom plate coated with collagen type IV. A mixed solution of NGF (final concentration 15 ng/ml or 1.1 nM) prereacted in a serum-free RPMI-1640 medium at room temperature or 37° C. for 30 min to 1 hr and an aptamer (final concentration 500-3 nM) was added. Two or three days later, the cytoplasm and nuclei were stained using Cellomics Neurite Outgrowth Kits (manufactured by Thermo Scientific), and neurite length per cell was measured by Cellomics ArrayScan VTI (manufactured by Thermo Scientific). With the neurite length per cell obtained by culturing the cell for 2 days with the addition of NGF alone as inhibitory activity 0%, and that of the cell obtained by NGF free culture as inhibitory activity 100%, the inhibitory activity of the aptamer was calculated from the neurite length per cell obtained by culturing with the addition of NGF and the aptamer in mixture. […] When the inhibitory activity was 0% or below, ‘0%’ is indicated. When it was not less than 100%, ‘100%’ is indicated. The 50% inhibitory concentration was determined from the concentrations at two, above and below points sandwiching the 50% inhibitory activity.
# Inverted dT is added to the 5′ and 3′ terminals. The activity was evaluated using Neuroscreen-1 cells in the same manner as in Example 8.
row,Binder,activity [% inhibition]
1,"CGGAUAAAAAUAGAGUUUGAUAAACACCUGUAUUAAAACCG (ssRNA, as SEQ30(6) [as SEQ30(6) (positions not stated)]) [SEQ30(6) G1:C41 to C:G]",92
2,"GGGAUAAAAUUAGAGUUUGAUAAACACCUGUAAUAAAACCC (ssRNA, as SEQ30(6) [as SEQ30(6) (positions not stated)]) [SEQ30(6) A10:U33 to U:A]",80.8
3,"GGGAUAAAAAUUGAGUUUGAUAAACACCUGAAUUAAAACCC (ssRNA, as SEQ30(6) [as SEQ30(6) (positions not stated)]) [SEQ30(6) A12:U31 to U:A]",93.1

# Target: T1, beta-NGF (nerve growth factor)
# Experiment: SPR; more than 30N; cell IC50 26.1 nM
# Details: tags: R&D Systems human NGF; chain copies: 2
row,Binder,binding result
1,"SEQ44 aptamer (ssRNA, 2'-F pyrimidines) RNA: GGGGAACUUCGACCAGAAGUUUGAAAGAAACCCAAAAUUAGCACCAUAAUAUGUGCGCAUACAUGGAUCCUCA",binds
